The record followed here is patent CN117999283A (INST BASIC SCIENCE; KOREA ADVANCED INST SCI & TECH, dated 2024).

B1: 人Tie2 ECD (人Tie2的第23-735位残基) (receptor, human, UniProt Q02763 23-735, looked up)
chain: AMDLILINSLPLVSDAETSLTCIASGWRPHEPITIGRDFEALMNQHQDPLEVTQDVTREWAKKVVWKREKASKINGAYFCEGRVRGEAIRIRTMKMRQQASFLPATLTMTVDKGDNVNISFKKVLIKEEDAVIYKNGSFIHSVPRHEVPDILEVHLPHAQPQDAGVYSARYIGGNLFTSAFTRLIVRRCEAQKWGPECNHLCTACMNNGVCHEDTGECICPPGFMGRTCEKACELHTFGRTCKERCSGQEGCKSYVFCLPDPYGCSCATGWKGLQCNEACHPGFYGPDCKLRCSCNNGEMCDRFQGCLCSPGWQGLQCEREGIQRMTPKIVDLPDHIEVNSGKFNPICKASGWPLPTNEEMTLVKPDGTVLHPKDFNHTDHFSVAIFTIHRILPPDSGVWVCSVNTVAGMVEKPFNISVKVLPKPLNAPNVIDTGHNFAVINISSEPYFGDGPIKSKKLLYKPVNHYEAWQHIQVTNEIVTLNYLEPRTEYELCVQLVRRGEGGEGHPGPVRRFTTASIGLPPPRGLNLLPKSQTTLNLTWQPIFPSSEDDFYVEVERRSVQKSDQQNIKVPGNLTSVLLNNLHPREQYVVRARVNTKAQGEWSEDLTAWTLSDILPPQPENIKISNITHSSAVISWTILDGYSISSITIRYKVQGKNEDQHVDVKIKNATITQYQLKGLEPETAYQVDIFAENNIGSSNPAFSHELVTLPES
notes: range 23-735; The construct is defined on GenBank AAH35514.2; Tags are not described; also called hTie2 ECD
B2: hTAAB (hTie2活化小鼠单克隆抗体, 小鼠IgG1) (antibody, V domains shown)
VH: QVQLQQPGAELVRPGASVKLSCKASGYSFTSYWMNWVKQRPGQGLEWIGMIHPSDSETRLNQKFMDKATLTVDKSSSTAYMQLSSPTSEDSAVYYCARGLYGNSWGQGTLVTVSA
VL: DIQMTQSPSSLSASLGERVSLTCRASQDIGISLNWLQQEPDGTIKRLIYATSSLDSGVPKRFSGSRSGSDYSLTISSLESEDFVDYYCLQYASSPYTFGGGTKLEIK
notes: Mouse IgG1 from a hybridoma; also called 小鼠hTAAB; 亲本hTAAB

Data set [1] concerns the molecule itself. Description: SEC-MALS; self-association in solution. (In gel filtration, larger molecules generally elute earlier.)
The target in data set [2] is B1. Description: SPR (Biacore T200): hTie2 ECD amine-coupled on CM5, IgG as analyte at 0-64 nM, 1:1 model.

On to B1, for which the binding result in data set [1] is “no binding (tested: 1mg/ml)”.
By Kd is commonly meant the equilibrium constant for the complex coming apart. Higher therefore signals a looser complex. By koff is commonly meant the first-order rate constant of dissociation. Low values mean slow dissociation, high ones fast dissociation. One may read the kon as a measure of how fast the partners come together. Higher therefore signals faster complex formation. Take B2: in data set [2], the Kd turned out to be 4.2 nM, the koff was determined as 0.0006 s⁻¹ and the kon was 140000 M⁻¹ s⁻¹.
